Assay results reported in patent US20130059772A1, “Use of Repeat Sequence Protein Polymers in Personal Care Compositions” (DANISCO US INC., priority 2003, published 2013).
Numbering of substitutions follows the chain as printed.

Test: Isoelectric point determination (IEF gel)
Format: physicochemical
Details: SELP variants, Table 2
Protocol: In this Example, experiments performed to determine the isoelectric point and cloud point of SELP47K (Example 1) are described. The isoelectric point of SELP47K was determined by electrophoresing 5 mg/ml SELP47K solution using Isoelectric Focusing Electrophoresis (IEF) gel and Novex electrophoresis apparatus along with protein standards markers.

B1: SELP67K: SELP variant, 13 subunits (SEQ ID NO:30) (protein)
chain: MDPVVLQRRDWENPGVTQLNRLAAHPPFASDPMGVGVPGVGVPGVGVPGVGVPGKGVPGVGVPGVGVPGVGVPGAGAGSGAGAGSGAGAGSGAGAGSGAGAGSGAGAGSGVGVPGVGVPGVGVPGVGVPGKGVPGVGVPGVGVPGVGVPGAGAGSGAGAGSGAGAGSGAGAGSGAGAGSGAGAGSGVGVPGVGVPGVGVPGVGVPGKGVPGVGVPGVGVPGVGVPGAGAGSGAGAGSGAGAGSGAGAGSGAGAGSGAGAGSGVGVPGVGVPGVGVPGVGVPGKGVPGVGVPGVGVPGVGVPGAGAGSGAGAGSGAGAGSGAGAGSGAGAGSGAGAGSGVGVPGVGVPGVGVPGVGVPGKGVPGVGVPGVGVPGVGVPGAGAGSGAGAGSGAGAGSGAGAGSGAGAGSGAGAGSGVGVPGVGVPGVGVPGVGVPGKGVPGVGVPGVGVPGVGVPGAGAGSGAGAGSGAGAGSGAGAGSGAGAGSGAGAGSGVGVPGVGVPGVGVPGVGVPGKGVPGVGVPGVGVPGVGVPGAGAGSGAGAGSGAGAGSGAGAGSGAGAGSGAGAGSGVGVPGVGVPGVGVPGVGVPGKGVPGVGVPGVGVPGVGVPGAGAGSGAGAGSGAGAGSGAGAGSGAGAGSGAGAGSGVGVPGVGVPGVGVPGVGVPGKGVPGVGVPGVGVPGVGVPGAGAGSGAGAGSGAGAGSGAGAGSGAGAGSGAGAGSGVGVPGVGVPGVGVPGVGVPGKGVPGVGVPGVGVPGVGVPGAGAGSGAGAGSGAGAGSGAGAGSGAGAGSGAGAGSGVGVPGVGVPGVGVPGVGVPGKGVPGVGVPGVGVPGVGVPGAGAGSGAGAGSGAGAGSGAGAGSGAGAGSGAGAGSGVGVPGVGVPGVGVPGVGVPGKGVPGVGVPGVGVPGVGVPGAGAGSGAGAGSGAGAGSGAGAGSGAGAGSGAGAGSGVGVPGVGVPGVGVPGVGVPGKGVPGVGVPGVGVPGVGVPGAGAGSGAGAGSGAGAGSGAGAGSGAGAGSGAGAGSMDPGRYQDLRSHHHHHH
modifications: SELP 67K
Isoelectric Point: 10.53

B2: SELP47K-3: SELP variant, 3 subunits, no lysine substitution (SEQ ID NO:27) (protein)
chain: MDPVVLQRRDWENPGVTQLNRLAAHPPFASDPMGAGSGAGAGSGVGVPGVGVPGVGVPGVGVPGKGVPGVGVPGVGVPGVGVPGAGAGSGAGAGSGAGAGSGAGAGSGVGVPGVGVPGVGVPGVGVPGKGVPGVGVPGVGVPGVGVPGAGAGSGAGAGSGAGAGSGAGAGSGVGVPGVGVPGVGVPGVGVPGKGVPGVGVPGVGVPGVGVPGAGAGSGAGAGSGAGAMDPGRYQDLRSHHHHHH
modifications: SELP-47K-3
Isoelectric Point: 9.52

B3: SELP47E: SELP variant, 13 subunits, lysine substituted by glutamic acid (protein)
chain: MDPVVLQRRDWENPGVTQLNRLAAHPPFASDPMGAGSGAGAGSGVGVPGVGVPGVGVPGVGVPGEGVPGVGVPGVGEPGVGVPGAGAGSGAGAGSGAGAGSGAGAGSGVGVPGVGVPGVGVPGVGVPGEGVPGVGVPGVGEPGVGVPGAGAGSGAGAGSGAGAGSGAGAGSGVGVPGVGVPGVGVPGVGVPGEGVPGVGVPGVGEPGVGVPGAGAGSGAGAGSGAGAGSGAGAGSGVGVPGVGVPGVGVPGVGVPGEGVPGVGVPGVGEPGVGVPGAGAGSGAGAGSGAGAGSGAGAGSGVGVPGVGVPGVGVPGVGVPGEGVPGVGVPGVGEPGVGVPGAGAGSGAGAGSGAGAGSGAGAGSGVGVPGVGVPGVGVPGVGVPGEGVPGVGVPGVGEPGVGVPGAGAGSGAGAGSGAGAGSGAGAGSGVGVPGVGVPGVGVPGVGVPGEGVPGVGVPGVGEPGVGVPGAGAGSGAGAGSGAGAGSGAGAGSGVGVPGVGVPGVGVPGVGVPGEGVPGVGVPGVGEPGVGVPGAGAGSGAGAGSGAGAGSGAGAGSGVGVPGVGVPGVGVPGVGVPGEGVPGVGVPGVGEPGVGVPGAGAGSGAGAGSGAGAGSGAGAGSGVGVPGVGVPGVGVPGVGVPGEGVPGVGVPGVGEPGVGVPGAGAGSGAGAGSGAGAGSGAGAGSGVGVPGVGVPGVGVPGVGVPGEGVPGVGVPGVGEPGVGVPGAGAGSGAGAGSGAGAGSGAGAGSGVGVPGVGVPGVGVPGVGVPGEGVPGVGVPGVGEPGVGVPGAGAGSGAGAGSGAGAGSGAGAGSGVGVPGVGVPGVGVPGVGVPGEGVPGVGVPGVGEPGVGVPGAGAGSGAGAGSGAGAMDPGRYQDLRSHHHHHH
modifications: SELP 47E-13
notes: SELP variant, 13 subunits, lysine substituted by glutamic acid
Isoelectric Point: 4.16

B4: SELP58: SELP variant, 13 subunits (SEQ ID NO:31) (protein)
chain: MDPVVLQRRDWENPGVTQLNRLAAHPPFASDPMGVGVPGVGVPGVGVPGVGVPGVGVPGVGVPGVGVPGVGVPGAGAGSGAGAGSGAGAGSGAGAGSGAGAGSGVGVPGVGVPGVGVPGVGVPGVGVPGVGVPGVGVPGVGVPGAGAGSGAGAGSGAGAGSGAGAGSGAGAGSGVGVPGVGVPGVGVPGVGVPGVGVPGVGVPGVGVPGVGVPGAGAGSGAGAGSGAGAGSGAGAGSGAGAGSGVGVPGVGVPGVGVPGVGVPGVGVPGVGVPGVGVPGVGVPGAGAGSGAGAGSGAGAGSGAGAGSGAGAGSGVGVPGVGVPGVGVPGVGVPGVGVPGVGVPGVGVPGVGVPGAGAGSGAGAGSGAGAGSGAGAGSGAGAGSGVGVPGVGVPGVGVPGVGVPGVGVPGVGVPGVGVPGVGVPGAGAGSGAGAGSGAGAGSGAGAGSGAGAGSGVGVPGVGVPGVGVPGVGVPGVGVPGVGVPGVGVPGVGVPGAGAGSGAGAGSGAGAGSGAGAGSGAGAGSGVGVPGVGVPGVGVPGVGVPGVGVPGVGVPGVGVPGVGVPGAGAGSGAGAGSGAGAGSGAGAGSGAGAGSGVGVPGVGVPGVGVPGVGVPGVGVPGVGVPGVGVPGVGVPGAGAGSGAGAGSGAGAGSGAGAGSGAGAGSGVGVPGVGVPGVGVPGVGVPGVGVPGVGVPGVGVPGVGVPGAGAGSGAGAGSGAGAGSGAGAGSGAGAGSGVGVPGVGVPGVGVPGVGVPGVGVPGVGVPGVGVPGVGVPGAGAGSGAGAGSGAGAGSGAGAGSGAGAGSGVGVPGVGVPGVGVPGVGVPGVGVPGVGVPGVGVPGVGVPGAGAGSGAGAGSGAGAGSGAGAGSGAGAGSGVGVPGVGVPGVGVPGVGVPGVGVPGVGVPGVGVPGVGVPGAGAGSGAGAGSGAGAGSGAGAGSGAGAGSMDPGRYQLSAGRYHYQLVWCQK
modifications: SELP 58
Isoelectric Point: 6.7

B5: SELP47E-3: SELP variant, 3 subunits, lysine substituted by glutamic acid (SEQ ID NO:28) (protein)
chain: MDPVVLQRRDWENPGVTQLNRLAAHPPFASDPMGAGAGSGAGAGSGVGVPGVGVPGVGVPGVGVPGEGVPGVGVPGVGVPGVGVPGAGAGSGAGAGSGAGAGSGAGAGSGVGVPGVGVPGVGVPGVGVPGEGVPGVGVPGVGVPGVGVPGAGAGSGAGAGSGAGAGSGAGAGSGVGVPGVGVPGVGVPGVGVPGEGVPGVGVPGVGVPGVGVPGAGAGSGAGAGSGAGAMDPGRYQDLRSHHHHHH
modifications: SELP 47E-3
Isoelectric Point: 5.9

B6: SELP47R-3: SELP variant, 3 subunits, lysine substituted by arginine (SEQ ID NO:26) (protein)
chain: B5 chain with D2P, E67R, E131R, E195R
modifications: SELP 47R-3
Isoelectric Point: 10.5
